# Measurements published in article PMC3035906 (Cell Death & Disease, 2010).
# Biological target: DR4-Ig (death receptor 4, Ig fusion) (UniProt O00220)
# Experiment: SPR
# Chain of DR4-Ig (death receptor 4, Ig fusion) (O00220 24-239): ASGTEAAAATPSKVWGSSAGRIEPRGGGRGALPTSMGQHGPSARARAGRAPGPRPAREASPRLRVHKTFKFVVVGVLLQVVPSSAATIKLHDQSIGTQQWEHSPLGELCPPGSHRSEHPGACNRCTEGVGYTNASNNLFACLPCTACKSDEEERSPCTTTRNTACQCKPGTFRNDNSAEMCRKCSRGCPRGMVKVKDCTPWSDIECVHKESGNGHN
Binder,Kd [nM],koff [s⁻¹],kon [M⁻¹ s⁻¹]
rhTRAIL variant 4C7 (G131R/R149I/S159R/N199R/K201H/S215D) (ligand) VRERGPQRVAAHITGTRRRSNTLSSPNSKNEKALGIKINSWESSRRGHSFLSNLHLRNGELVIHEKGFYYIYSQTYFRFQEEIKERTHNDKQMVQYIYKYTDYPDPILLMKSARNSCWSKDAEYGLYSIYQGGIFELKENDRIFVSVTNEHLIDMDHEASFFGAFLVG,0.021 ± 0.01,5.9e-05,2.81e+06
rhTRAIL variant 4C9 (G131R/R149I/S159R/S215D) (ligand) VRERGPQRVAAHITGTRRRSNTLSSPNSKNEKALGIKINSWESSRRGHSFLSNLHLRNGELVIHEKGFYYIYSQTYFRFQEEIKENTKNDKQMVQYIYKYTDYPDPILLMKSARNSCWSKDAEYGLYSIYQGGIFELKENDRIFVSVTNEHLIDMDHEASFFGAFLVG,0.025 ± 0.02,5.8e-05,2.35e+06
